“And” between values parts separate entries of the source, which are not always exact repeats. Equal values may be shown once.

Holding throughout (type): biochemical
One series deals with M. lysodeikticus. Nature of the series: Bacteriolytic activity of secreted human lysozyme. To be noted: Table 3; for Bacteriolytic activity: culture supernatant, clones 1 to 3, 10 minutes at room temperature, absorbance at 450 nm; for Specific activity: per total amount of protein in culture supernatant, clones 1 to 3. An excerpt:
The expression vector for the aMF secretory signal-fused hLyz gene, onaP21808, was introduced into the ona01206 strain into which no chaperone combination was introduced, a strain that constitutively expresses a combination of O. minuta-derived chaperone genes; i.e., OmPDI1, OmERO1, and OmKar2, (i.e., the ona44607 strain), and a strain that constitutively expresses a combination of human-derived chaperone genes; i.e., synthetic hPDI, synthetic hERO1-Lβ, and synthetic hGRP78, (i.e., the ona68908 strain). Three clones were arbitrarily selected from the resulting colonies and cultured.
Also, bacteriolytic activity was assayed in the following manner. Bacteria of M. lysodeikticus was used as a substrate, and it was suspended in 50 mM phosphate buffer to prepare a substrate solution with a concentration of 0.16 mg/ml. To 240 μl of this substrate solution, 10 μl of a culture supernatant (the secreted human lysozyme) was added, and the mixture was incubated at room temperature for 10 minutes. Thereafter, the absorbance at 450 nm was assayed. […] Thus, a unit of lysozyme activity was defined as the amount of an enzyme that is necessary for the absorbance at 450 nm to be lowered by 0.001 per minute. Also, the total amount of proteins in the culture supernatant was assayed using the DC protein assay kit II (Bio-Rad, 500-0112JA) using bovine serum albumin as the standard.

For series [1], the target named is T1, human alpha-2,3-sialic acid transferase (ST3GalI) (Homo sapiens, UniProt Q11201).
T1 construct: The catalyst domain of the ST3GalI gene was first amplified via PCR; His6 (N); made in house; host or cells: Ogataea minuta TK10-1-2 derived strains (YT-2 to YT-7), with or without co-expressed O. minuta chaperones; culture supernatant used as crude enzyme
T1 sequence (Q11201 35-340 limits assumed): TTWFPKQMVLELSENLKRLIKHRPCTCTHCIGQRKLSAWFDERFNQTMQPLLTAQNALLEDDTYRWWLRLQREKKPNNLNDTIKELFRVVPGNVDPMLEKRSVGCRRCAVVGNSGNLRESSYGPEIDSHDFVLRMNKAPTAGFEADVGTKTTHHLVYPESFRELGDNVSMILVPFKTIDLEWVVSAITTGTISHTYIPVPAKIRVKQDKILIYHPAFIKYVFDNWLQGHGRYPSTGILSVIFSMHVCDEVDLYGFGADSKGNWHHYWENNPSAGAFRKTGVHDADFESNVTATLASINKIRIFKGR
Put plainly: Sialic acid transferase (ST3GalI) enzyme activity assay of crude enzyme solution, HPLC, core 1-pNP substrate. To be noted: for Specific activity: Table 1, culture supernatant equivalent to 10 μU, EndoHf treated, Western blot signal intensity; for Activity: Table 2, culture supernatant, assayed with the elapse of time. On the procedure: The YT-2 strain and the YT-3 strain were inoculated in 5 ml of YPAD+KCl medium (2% polypeptone, 1% yeast extract, 2% glucose, adenine (40 mg/l), 0.3 M potassium chloride), and preculture was carried out at 30° C. overnight. Subsequently, 1 ml of a preculture solution was inoculated in 150 ml of YPAD+KCl medium, and culture was carried out at 30° C. for 48 hours. The strains were recovered, resuspended in 100 ml of BMMY+2% casamino acid medium (1% yeast extract, 2% polypeptone, 1.34% Yeast Nitrogen Base without amino acids (Difco), 0.1 M KPi (pH 6.0), 2% casamino acid, 1% methanol), and cultured at 20° C. for 96 hours. Methanol was added to a concentration of 0.5% every 12 hours. After the completion of culture, the culture product was subjected to centrifugation to remove yeast cells, and the resulting solution was designated as a crude enzyme solution.
Enzyme activity was assayed in the following manner. A crude enzyme solution (2 μl) was added to 18 μl of a reaction solution (0.1 M Tris-HCl (pH 7.5), 1 mM MnCl2, 5 mM CMP-NeuAc, 50 μM core 1-pNP), and the reaction was initiated. After the reaction was carried out at 37° C. for 30 minutes, the reaction was terminated via boiling, and HPLC analysis was carried out. A Cosmosil 5C18-ARII column (4.6×250 mm, Nacalai Tesque, Inc.) was used, and a mixture of 0.2 M triethylamine-acetic acid (pH 7.0, solution A) and acetonitrile (solution B) (solution A:solution B=9:1) was used as a mobile phase. The column was equilibrated, the sample was injected therein, and elution was carried out 20 minutes thereafter. Detection was carried out using a UV detector (detection wavelength: 300 nm). A core1-pNP substrate was eluted 14.5 minutes later, and a reaction product, sialylcore1-pNP, was eluted 17 minutes later. The reaction product was quantified based on the peak area, and the result was designated as activity (U). The unit “1 U” was defined as the amount of an enzyme that is necessary to produce 1 μmol of the reaction product per minute.
Western blot analysis was then carried out. The culture supernatants in amounts equivalent to “10 μU” of the YT-2 strain and the YT-3 strain were subjected to treatment with EndoHf (NEB, P0703S) in accordance with the protocol, applied, and then subjected to SDS-PAGE. After electrophoresis, the product was transferred to a PVDF membrane, and Western blotting was carried out in accordance with a conventional technique. A mouse anti-FLAG M2 antibody (Sigma, F1804) was used as a primary antibody and an anti-mouse IgG antibody-alkaline phosphatase composite was used as a secondary antibody. Detection was carried out using CDP-Star and an image analyzer, LAS1000 (Fujifilm Corporation). Further, signals were quantified using Image Gauge (Fujifilm Corporation).
The expression vector for various chaperone gene combinations derived from O. minuta prepared in Example 4 was introduced into the YT-1 strain of Example 17. In the same manner as in Example 16, plasmids were cleaved with NotI to transform the YT-1 strain. After transformation, the resultant was applied on SD-Ura medium (2% glucose, 0.17% Yeast Nitrogen Base without amino acids (Difco), nucleic acid bases except for uracil, and amino acid mixture (20 to 400 mg/l)) and culture was carried out at 30° C. for 2 days. Whether or not the expression vector was incorporated into a chromosome was confirmed via colony PCR described in Example 5, an expressed strain having a coexpression vector (onaP09407) carrying two copies of the OmPDI1 expression cassette was designated as the YT-4 strain, an expressed strain having a coexpression vector (onaP09707) for OmPDI1 and OmKar2 was designated as the YT-5 strain, an expressed strain having a coexpression vector (onaP09507) for OmPDI1 and OmERO1 was designated as the YT-6 strain, and an expressed strain having a coexpression vector (onaP09607) for OmPDI1 and OmHSP104 was designated as the YT-7 strain. […]

The target in series [2] is T1, human alpha-2,3-sialic acid transferase (ST3GalI). The description is as above. As to conditions: Table 2, 30 μl culture supernatant, Western blot signal intensity, with the elapse of time. For orientation: A western blot detects proteins with antibodies after separation by electrophoresis.

With “Ona01206: secreted human lysozyme sample from strain into which no chaperone combination was introduced”, in the series with M. lysodeikticus, the Bacteriolytic activity was 23.0 unit/ml and 22.3 unit/ml and 22.0 unit/ml; the Specific activity is 0.45 unit/mg and 0.42 unit/mg and 0.43 unit/mg.

Consider “Ona44607: secreted human lysozyme sample from strain constitutively expressing OmPDI1, OmERO1, and OmKar2”, for which, in the series on M. lysodeikticus, the Bacteriolytic activity is 33.3 unit/ml and 34.0 unit/ml; the Specific activity was 0.67 unit/mg and 0.65 unit/mg.

B1: YT-3: ST3GalI crude enzyme solution from O. minuta strain into which OmPDI1 (onaP03606) had been introduced (protein, UniProt Q11201 1-340, looked up)
CMP-N-acetylneuraminate-beta-g …: MVTLRKRTLKVLTFLVLFIFLTSFFLNYSHTMVATTWFPKQMVLELSENLKRLIKHRPCTCTHCIGQRKLSAWFDERFNQTMQPLLTAQNALLEDDTYRWWLRLQREKKPNNLNDTIKELFRVVPGNVDPMLEKRSVGCRRCAVVGNSGNLRESSYGPEIDSHDFVLRMNKAPTAGFEADVGTKTTHHLVYPESFRELGDNVSMILVPFKTIDLEWVVSAITTGTISHTYIPVPAKIRVKQDKILIYHPAFIKYVFDNWLQGHGRYPSTGILSVIFSMHVCDEVDLYGFGADSKGNWHHYWENNPSAGAFRKTGVHDADFESNVTATLASINKIRIFKGR
Consider B1, for which the “difference in the expression levels (enzyme activity) compared with YT-2” value in series [1] (96 hours later, FIG. 15) was “approximately 3.4 times”. In series [1], the Specific activity is given as 3.36 pU/AU. In addition, the “elevation of the specific activity by introduction of OmPDI1” value in series [1] (YT-3 versus YT-2) is listed as “approximately 1.6 times”.

B2: YT-2: ST3GalI crude enzyme solution from O. minuta strain with control plasmid pOMexGP1U, no OmPDI1 (protein, UniProt Q11201 1-340, looked up)
CMP-N-acetylneuraminate-beta-g …: MVTLRKRTLKVLTFLVLFIFLTSFFLNYSHTMVATTWFPKQMVLELSENLKRLIKHRPCTCTHCIGQRKLSAWFDERFNQTMQPLLTAQNALLEDDTYRWWLRLQREKKPNNLNDTIKELFRVVPGNVDPMLEKRSVGCRRCAVVGNSGNLRESSYGPEIDSHDFVLRMNKAPTAGFEADVGTKTTHHLVYPESFRELGDNVSMILVPFKTIDLEWVVSAITTGTISHTYIPVPAKIRVKQDKILIYHPAFIKYVFDNWLQGHGRYPSTGILSVIFSMHVCDEVDLYGFGADSKGNWHHYWENNPSAGAFRKTGVHDADFESNVTATLASINKIRIFKGR
B2: the Specific activity in series [1] was 2.13 pU/AU.

B3: YT-7: ST3GalI culture supernatant from strain coexpressing OmPDI1 and OmHSP104 (protein, UniProt Q11201 1-340, looked up)
CMP-N-acetylneuraminate-beta-g …: MVTLRKRTLKVLTFLVLFIFLTSFFLNYSHTMVATTWFPKQMVLELSENLKRLIKHRPCTCTHCIGQRKLSAWFDERFNQTMQPLLTAQNALLEDDTYRWWLRLQREKKPNNLNDTIKELFRVVPGNVDPMLEKRSVGCRRCAVVGNSGNLRESSYGPEIDSHDFVLRMNKAPTAGFEADVGTKTTHHLVYPESFRELGDNVSMILVPFKTIDLEWVVSAITTGTISHTYIPVPAKIRVKQDKILIYHPAFIKYVFDNWLQGHGRYPSTGILSVIFSMHVCDEVDLYGFGADSKGNWHHYWENNPSAGAFRKTGVHDADFESNVTATLASINKIRIFKGR
Regarding B3, the Specific activity in series [2] (listed as YT-7-1) turned out to be 11.4 pU/AU; in series [2] (listed as YT-7-2), 27.9 pU/AU; in series [2] (listed as YT-7-3), 42.5 pU/AU; in series [2] (listed as YT-7-4) it was 57.3 pU/AU. The Activity is given as 1.28 mU/ml in series [1] (listed as YT-7-1), 2.98 mU/ml in series [1] (listed as YT-7-2), 3.45 mU/ml in series [1] (listed as YT-7-3) and 3.65 mU/ml in series [1] (listed as YT-7-4).

B4: YT-5: ST3GalI culture supernatant from strain coexpressing OmPDI1 and OmKar2 (protein, UniProt Q11201 1-340, looked up)
CMP-N-acetylneuraminate-beta-g …: MVTLRKRTLKVLTFLVLFIFLTSFFLNYSHTMVATTWFPKQMVLELSENLKRLIKHRPCTCTHCIGQRKLSAWFDERFNQTMQPLLTAQNALLEDDTYRWWLRLQREKKPNNLNDTIKELFRVVPGNVDPMLEKRSVGCRRCAVVGNSGNLRESSYGPEIDSHDFVLRMNKAPTAGFEADVGTKTTHHLVYPESFRELGDNVSMILVPFKTIDLEWVVSAITTGTISHTYIPVPAKIRVKQDKILIYHPAFIKYVFDNWLQGHGRYPSTGILSVIFSMHVCDEVDLYGFGADSKGNWHHYWENNPSAGAFRKTGVHDADFESNVTATLASINKIRIFKGR
As to B4, the Specific activity is recorded as 10.7 pU/AU in series [2] (listed as YT-5-1), 15.8 pU/AU in series [2] (listed as YT-5-2), 12.3 pU/AU in series [2] (listed as YT-5-3) and 14.9 pU/AU in series [2] (listed as YT-5-4). Moreover, the Activity came to 1.29 mU/ml in series [1] (listed as YT-5-1), 2.07 mU/ml in series [1] (listed as YT-5-2), 1.86 mU/ml in series [1] (listed as YT-5-3) and 2.29 mU/ml in series [1] (listed as YT-5-4).

Values taken from patent US8409825B2, “Method for high-level secretory production of protein” (National Institute of Advanced Industrial Science and …, priority 2007, dated 2013).
